Test results from US20260242478A1 (published 2026).
Where no end group is shown, it is not given here.

Experiments:
[1] = target: PSMA Fab (anti-PSMA Fab; 006 PSMA Fab); assay: phage binding ELISA; clonal phage supernatant on biotinylated PSMA Fab captured on neutravidin plate; anti-M13 HRP detection
Experimental: (§1) Clonal phage were harvested as crude supernatants and screened via standard ELISAs. […] Prior to the addition of clonal phage. wells were incubated with blocking buffer and PSMA antigen or blocking buffer alone. Without washing or aspirating, clonal phage supernatants were then added to the wells and incubated for a short time. Wells were then washed followed by detection of bound phage using a horse radish conjugated anti-M13 antibody.

[2] = target: PSMA Fab (anti-PSMA Fab; 006 PSMA Fab); assay: phage binding ELISA on captured PSMA Fab; wells first incubated with PSMA antigen as competitor; anti-M13 HRP detection
Experimental: as §1

006 PSMA Fab [3] = target: T1, 006 PSMA Fab (biotinylated (site not stated)); assay: clonal phage ELISA on captured PSMA Fab, wells pre-incubated with PSMA antigen as competitor
T1 construct: Biotinylated PSMA Fab captured on neutravidin coated plates in the panning ELISA; also called Anti-PSMA Fab

006 PSMA Fab [4] = target: T1, 006 PSMA Fab; assay: clonal phage ELISA on biotinylated PSMA Fab captured on neutravidin plates, anti-M13-HRP detection;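 note: crude clonal phage supernatants added to wells preincubated with PSMA antigen or with blocking buffer only (no wash between), briefly incubated, then washed before detecting bound phage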
Experimental: as §1

006 PSMA Fab [5] = target: T2, 006 PSMA Fab; assay: clonal phage ELISA on biotinylated PSMA Fab captured on neutravidin plates, anti-M13 HRP detection;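 note: crude clonal phage supernatants tested, before phage were added, wells were pretreated with PSMA antigen in blocking buffer or with blocking buffer only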
T2 construct: also called Anti-PSMA Fab
Experimental: as §1

006 PSMA Fab [6] = target: T2, 006 PSMA Fab; assay: clonal phage ELISA on captured PSMA Fab pre-incubated with PSMA antigen as competitor, anti-M13 HRP detection;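 note: crude clonal phage supernatants tested by ELISA, wells first treated with blocking buffer plus PSMA antigen, bound phage read out via HRP-linked anti-M13 antibody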
Experimental: as §1

B1: Phage-2738 (Peptide-180 library clone) (peptide)
peptide: WEKLCRPAWMCAAY
modifications: cysteine pairing not given here; also: fused to pIII, displayed on bacteriophage
Phage binding ELISA signal, Anti-PSMA Fab [1]: 0.715
Phage binding ELISA signal, Anti-PSMA Fab with PSMA antigen [2]: 0.0754

B2: Phage-2756 (peptide)
peptide: AHNWCTPAWMCMWD
modifications: cysteine pairing not given here; also: fused to pIII, displayed on bacteriophage
notes: Clone of the Peptide-180 optimisation library, tested as clonal phage supernatant (peptide fused to pIII of the bacteriophage)
phage binding ELISA signal in presence of PSMA antigen (006 PSMA Fab [3]): 0.0753
phage binding ELISA signal (006 PSMA Fab [4]): 0.682

B3: Phage-2757 (peptide)
peptide: GEIRCSPAWMCDGF
notes: as for B2
phage binding ELISA signal in presence of PSMA antigen (006 PSMA Fab [3]): 0.104
phage binding ELISA signal (006 PSMA Fab [4]): 0.682

B4: Phage-2764 (peptide)
peptide: ENHWCRPMWMCETI
notes: as for B2
phage binding ELISA signal in presence of PSMA antigen (006 PSMA Fab [3]): 0.0683
phage binding ELISA signal (006 PSMA Fab [4]): 0.66

B5: Phage-2835 (peptide)
peptide: VAKLCTPAWMCSAM
modifications: cysteine pairing not given here; also: fused to pIII of bacteriophage, linker and pIII sequence not given here
notes: Clonal phage of the Peptide-180 optimization library, tested as crude phage supernatant; not shown: fused to pIII of the bacteriophage
Phage binding ELISA signal, Anti-PSMA Fab (006 PSMA Fab [5]): 0.431
Phage binding ELISA signal, Anti-PSMA Fab with PSMA antigen (006 PSMA Fab [6]): 0.0638

B6: Phage-2762 (peptide)
peptide: WINWCTPQWMCADL
modifications: cysteine pairing not given here; also: fused to pIII, displayed on bacteriophage
notes: as for B2
phage binding ELISA signal in presence of PSMA antigen (006 PSMA Fab [3]): 0.13
phage binding ELISA signal (006 PSMA Fab [4]): 0.662

B7: Phage-2770 (peptide)
peptide: QIKWCIPMWMCEGE
notes: as for B2
phage binding ELISA signal in presence of PSMA antigen (006 PSMA Fab [3]): 0.0554
phage binding ELISA signal (006 PSMA Fab [4]): 0.651

B8: Phage-2769 (peptide)
peptide: SYKWCTPDWMCVAV
notes: as for B2
phage binding ELISA signal in presence of PSMA antigen (006 PSMA Fab [3]): 0.0709
phage binding ELISA signal (006 PSMA Fab [4]): 0.651

B9: Phage-2842 (peptide)
peptide: PEVMCRPVWMCLGF
modifications: cysteine pairing not given here; also: fused to phage pIII, linker not given here
notes: as for B5
Phage binding ELISA signal, Anti-PSMA Fab (006 PSMA Fab [5]): 2.51
Phage binding ELISA signal, Anti-PSMA Fab with PSMA antigen (006 PSMA Fab [6]): 0.112

B10: Phage-2836 (peptide)
peptide: DWKLCKPTWMCESL
modifications: cysteine pairing not given here; also: fused to pIII of bacteriophage, linker and pIII sequence not given here
notes: as for B5
Phage binding ELISA signal, Anti-PSMA Fab (006 PSMA Fab [5]): 0.43
Phage binding ELISA signal, Anti-PSMA Fab with PSMA antigen (006 PSMA Fab [6]): 0.0664

B11: Phage-2760 (peptide)
peptide: PVKMCTPAWMCSER
notes: as for B2
phage binding ELISA signal in presence of PSMA antigen (006 PSMA Fab [3]): 0.0866
phage binding ELISA signal (006 PSMA Fab [4]): 0.67

B12: Phage-2840 (peptide)
peptide: EPQWCIPKWMCDHM
modifications: cysteine pairing not given here; also: fused to pIII of bacteriophage, linker and pIII sequence not given here
notes: as for B5
Phage binding ELISA signal, Anti-PSMA Fab (006 PSMA Fab [5]): 0.423
Phage binding ELISA signal, Anti-PSMA Fab with PSMA antigen (006 PSMA Fab [6]): 0.0608

B13: Phage-2759 (peptide)
peptide: MQKMCIPTWMCDGL
notes: as for B2
phage binding ELISA signal in presence of PSMA antigen (006 PSMA Fab [3]): 0.0817
phage binding ELISA signal (006 PSMA Fab [4]): 0.673

B14: Phage-2768 (peptide)
peptide: AENWCTPRWMCEGI
notes: as for B2
phage binding ELISA signal in presence of PSMA antigen (006 PSMA Fab [3]): 0.201
phage binding ELISA signal (006 PSMA Fab [4]): 0.655

B15: Phage-2837 (peptide)
peptide: VDRWCTPPWMCDWQ
modifications: cysteine pairing not given here; also: fused to pIII of bacteriophage, linker and pIII sequence not given here
notes: as for B5
Phage binding ELISA signal, Anti-PSMA Fab (006 PSMA Fab [5]): 0.429
Phage binding ELISA signal, Anti-PSMA Fab with PSMA antigen (006 PSMA Fab [6]): 0.0626

B16: Phage-2841 (peptide)
peptide: ESIRCTPAWMCVEM
modifications: cysteine pairing not given here; also: fused to pIII of bacteriophage, linker and pIII sequence not given here
notes: as for B5
Phage binding ELISA signal, Anti-PSMA Fab (006 PSMA Fab [5]): 0.421
Phage binding ELISA signal, Anti-PSMA Fab with PSMA antigen (006 PSMA Fab [6]): 0.0725

B17: Phage-2758 (peptide)
peptide: MVHWCTPSWMCSAL
notes: Clone of the Peptide-180 optimisation library, tested as clonal phage supernatant (peptide fused to pIII of the bacteriophage); Row read against Peptide-180: MVHWCTPSWMCSAL
phage binding ELISA signal in presence of PSMA antigen (006 PSMA Fab [3]): 0.1
phage binding ELISA signal (006 PSMA Fab [4]): 0.677

B18: Phage-2843 (peptide)
peptide: MLPICKPDWMCAGF
modifications: cysteine pairing not given here; also: fused to pIII of bacteriophage, linker and pIII sequence not given here
notes: as for B5
Phage binding ELISA signal, Anti-PSMA Fab (006 PSMA Fab [5]): 2.49
Phage binding ELISA signal, Anti-PSMA Fab with PSMA antigen (006 PSMA Fab [6]): 0.0942

B19: Phage-2766 (peptide)
peptide: VEKWCTPAWMCSTS
notes: as for B2
phage binding ELISA signal in presence of PSMA antigen (006 PSMA Fab [3]): 0.065
phage binding ELISA signal (006 PSMA Fab [4]): 0.657

FENWCTPYWMCSGM [Phage-2739 (Peptide-180 library clone)]
Phage binding ELISA signal, Anti-PSMA Fab [1]: 0.712
Phage binding ELISA signal, Anti-PSMA Fab with PSMA antigen [2]: 0.0884

B20: Phage-2761 (peptide)
peptide: PWKWCTPVWMCQGV
notes: as for B2
phage binding ELISA signal in presence of PSMA antigen (006 PSMA Fab [3]): 0.0937
phage binding ELISA signal (006 PSMA Fab [4]): 0.669

B21: Phage-2838 (peptide)
peptide: HPKLCTPEWMCVIQ
modifications: cysteine pairing not given here; also: fused to pIII of bacteriophage, linker and pIII sequence not given here
notes: as for B5
Phage binding ELISA signal, Anti-PSMA Fab (006 PSMA Fab [5]): 0.424
Phage binding ELISA signal, Anti-PSMA Fab with PSMA antigen (006 PSMA Fab [6]): 0.104

B22: Phage-2765 (peptide)
peptide: HAIWCIPEWMCAFN
modifications: cysteine pairing not given here; also: fused to pIII, displayed on bacteriophage
notes: as for B2
phage binding ELISA signal in presence of PSMA antigen (006 PSMA Fab [3]): 0.124
phage binding ELISA signal (006 PSMA Fab [4]): 0.658

B23: Phage-2763 (peptide)
peptide: FEKWCTPTWMCWPY
notes: as for B2
phage binding ELISA signal in presence of PSMA antigen (006 PSMA Fab [3]): 0.0829
phage binding ELISA signal (006 PSMA Fab [4]): 0.661

B24: Phage-2844 (peptide)
peptide: VVAMCKPAWMCAGL
modifications: cysteine pairing not given here; also: fused to pIII of bacteriophage, linker and pIII sequence not given here
notes: as for B5
Phage binding ELISA signal, Anti-PSMA Fab (006 PSMA Fab [5]): 2.48
Phage binding ELISA signal, Anti-PSMA Fab with PSMA antigen (006 PSMA Fab [6]): 0.0731

B25: Phage-2767 (peptide)
peptide: DVTWCIPPWMCMYN
notes: as for B2
phage binding ELISA signal in presence of PSMA antigen (006 PSMA Fab [3]): 0.0814
phage binding ELISA signal (006 PSMA Fab [4]): 0.655

B26: Phage-2839 (peptide)
peptide: DSHWCMPVWMCMGL
modifications: cysteine pairing not given here; also: fused to pIII of bacteriophage, linker and pIII sequence not given here
notes: as for B5
Phage binding ELISA signal, Anti-PSMA Fab (006 PSMA Fab [5]): 0.423
Phage binding ELISA signal, Anti-PSMA Fab with PSMA antigen (006 PSMA Fab [6]): 0.156
